Data from the RNAGym collection of RNA variant scans (doi:10.7554/elife.80360).

B1: HDV Ribozyme (parent)
chain: GGCCGGCAUGGUCCCAGCCUCCUCGCUGGCGCCGGCUGGGCAACAUUCCGAGGGGACCGUCCCCUCGGUAAUGGCGAAUGGGACCCA

Variants of: B1
Test: self-cleavage, relative activity (ratio to wild type); higher = more cleavage; co-transcriptional

Variant | self-cleavage
G2C U23G | 0.0268
G73U A78U | 0.119
C15G C36A | 0.306
C36G G39U | 0.0652
G1C G76U | 0.115
C30A A83G | 0.127
G17A G34C | 0.0594
C32U G82A | 0.354
G1A U69C | 0.104
C26U U69C | 1.12
C84A C86A | 0.712
C3A U27C | 0.217
C30U G35U | 0.0219
G54U C75A | 0.241
U12C G35A | 0.0723
G67U G80C | 0.128
U23G G40A | 0.76
C13U U37C | 0.369
C33U C48U | 0.847
C15U A43C | 0.0594
C15A C66A | 0.684
C61U C75A | 0.201
U37A G67A | 0.215
C14G G76U | 0.985

Variant | self-cleavage
G10C C75G | 0.115
G54U G68U | 0.842
C18G U20G | 0.185
A77U G82U | 0.0811
C30A A42C | 0.14
G2U C66U | 0.0895
C7G G82A | 0.113
G73U C86A | 0.543
C41G A78C | 0.0405
C13G C32A | 0.0875
G50U U69A | 0.872
C4U C86G | 0.831
G25A C61U | 0.225
G53A G81A | 0.456
C63U U72A | 0.864
G59U U72G | 0.776
C18G U20C | 0
G73C G81U | 0.259
G68A U72C | 0.594
G5U U9A | 0.578
U9C A77C | 0.364
G1A C61U | 0.26
G10C U65G | 0.997
U9G G38C | 0.302

Variant | self-cleavage
U9G C58G | 1.02
A8C C62G | 0.475
C26A C41A | 1.17
G10A | 0.779
G17U G67C | 0.628
C26U G81C | 0.748
G52A A83U | 0.475
C48A C85U | 1.16
G2A A87C | 0.273
C4G C57G | 0.489
C22G G73A | 0.0692
C15A C24A | 0.378
G53A C58U | 0.987
C30A A77U | 0.0354
C13G C14A | 0
G40U C66G | 0.582
A71G C84G | 0.465
C26G U46C | 1.15
G55C A78U | 0.324
G6U G35A | 0.208
G5U C19U | 0.0923
A16G G74U | 0.494
C32G A51U | 0.128
C21G G76U | 0.0583

Variant | self-cleavage
A43G U60G | 0.755
C58A C62G | 1.19
C7A A51G | 0.635
C4U C61A | 0.978
U79A C84A | 0.539
U23A C44A | 0.612
G17U U65G | 0.541
U60A G82U | 0.35
C48A C75G | 0.142
C21U G39U | 0.604
C21G A71C | 0.0449
G11A G55C | 0.396
U12G G54A | 0.831
U23G U46C | 0.462
C48U C57U | 0.969
G40A C86A | 1.2
G29C C84G | 0.208
G53A A87G | 0.995
C61U G76A | 1.19
C33U U47A | 0.872
U23A U69C | 0.942
G1A C64U | 0.101
C3A C57A | 0.659
U47C G52C | 0.917

Variant | self-cleavage
G39U A51G | 0.818
U37G A51C | 0.0504
U37G G39U | 0
G10A G81C | 0.22
U9C A42G | 0.886
G6A G74C | 0.155
G25U C36A | 0.106
G11C U46C | 0.123
G2C G54A | 0.0777
C19A A45G | 0.0369
G39U G80U | 0.119
A42G C44G | 0
U47G G68C | 0.499
C66G U79A | 0.808
U12A G35C | 0.142
C57A C63A | 1.25
G5C G39A | 0
C15A C58U | 0.458
G2U U47G | 0.119
G5U C19A | 0.256
G17C C36G | 0.122
G29A C63G | 0.128
C41U G52A | 1.06
C13A U79C | 0.0692

Variant | self-cleavage
U12G C49G | 0.787
G10A U23C | 0.554
U27C C63A | 0.883
A42G C86A | 0.697
G25C G29A | 0.155
U46G G53C | 0.465
C22G C32A | 0
A45C U69C | 0.623
C21A U65G | 0.0665
C3G U27C | 0.133
U27A A71G | 1.07
G6A G55C | 0.791
G5U C44A | 0.119
G25A U46A | 0
G35C C62A | 0.277
C4G A51C | 0.458
C36A G40A | 0.234
C22A U65G | 0.302
U12G C19U | 0.0378
C3U C4G | 0
G10U U69G | 0.815
U20C A83U | 0
A42G G54C | 0.614
G29A G35U | 0.101

Variant | self-cleavage
C32A G80U | 0.0472
C57A G74A | 0.597
G74C C85U | 0.128
U27A A87C | 0.88
C58A G81C | 0.128
U9A C41U | 1.07
A42U C85U | 0.541
U9C G80U | 0.193
U65A A70G | 1.05
G34U U65G | 0.146
A51U A71U | 1.01
C21U G67C | 0.205
C41G A71C | 0.0723
G6A C49G | 0.222
U27C C57U | 0.707
G39U C86U | 0.858
G81U C85G | 0.212
C18U C44G | 0.142
C4A C33A | 0
C26G G54U | 0.941
C62G U79A | 0.489
C36U C64A | 0.482
G74U A83C | 0.271
